Assay results reported in publication PMC9207482.

Legend:
[1] = target: SlPYL1 E151D (tomato (Solanum lycopersicum)); experiment: SEC; Superdex 30 Increase 3.2/300 column as printed; 50 ul with 60, 6 or 0.6 ug protein (48 to 0.48 uM injected); 30 mM Tris-HCl pH 7.5, 150 mM NaCl, 1 mM DTT; apo form, no ABA; refractive index detection
[2] = target: SlPYL1 wild type (tomato dimeric abscisic acid receptor PYL1) (tomato (Solanum lycopersicum)); experiment: as above

stoichiometry N [1] | stoichiometry N [2] | Substance
2 | – | SlPYL1 E151D (receptor)
– | 2 | SlPYL1 wild type (tomato dimeric abscisic acid receptor PYL1)
